Laboratory results published in the RNAGym collection of RNA variant scans (doi:10.1093/molbev/msab373).

B1: Azoarcus group I ribozyme (parent)
chain: GUGCCUUGCGCCGGGAAACCACGCAAGGGAUGGUGUCAAAUUCGGCGAAACCUAAGCGCCCGCCCGGGCGUAUGGCAACGCCGAGCCAAGCUUCGGCGCCUGCGCCGAUGAAGGUGUAGAGACUAGACGGCACCCACCUAAGGCAAACGCUAUGGUGAAGGCAUAGUCCAGGGAGUGGCGAAAGUCACACAAACCGG

Variants of: B1
Assay: reverse-splicing fitness (ratio to wild type); higher = more active; in vitro selection; Mg2+ level not given
Procedure, shortened: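 An in vitro group I ribozyme library with randomized positions was T7-transcribed and gel-purified. In triplicate, 10 pmol RNA in EPPS pH 7.5 was reacted with 50 pmoles of a 30-nt RNA substrate for 1 h at 37 °C across several added MgCl2 levels (1–48 mM), then stopped with EDTA. Products were reverse transcribed from a substrate-complementary primer, PCR-amplified and sequenced (HiSeq 4000). Fitness is a variant's read proportion after selection over that before, normalised to wild type.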

Question: For GUGCCUUGCGCCGGGAAACCACGCAAGGGAUGGUGUCAAAUUCGGCGAAACCUAAGCGCCCGCCCGGGCGUAUGGCAACGCAGAGCCAAGCUUCGGCGCCUGCGCCGAUGAAGGUGUAGCGACUAGACGGCACCCACCUAAGGCUAACGAUAUGGUGAAGGCAUAGUCCAGGGAGGGGCGAAAGUCACACAAACCGG [C82A A120C A145U C150A U176G], which reverse-splicing fitness is on record?
Answer: 0.00574

Question: Which reverse-splicing fitness does the source give for GUGCCUUGCGCCGGGAAACCACGCAAGGGAUGGUGUCAAAUUCGGCGAAACCUAAGCGCCCGCCCGGGCGUAUGGCAACGCAGAGCCAAGCUUCGGCGCCUGCGCCGAUGAAGGUGUAGCGACUAGACGGCACCCACCUAAGGCUAACGGUAUGGUGAAGGCAUAGUCCAGGGAGUGGCGAAAGUCACACAAACCGG [C82A A120C A145U C150G] here?
Answer: 0.0161

Question: Which reverse-splicing fitness does the source give for GUGCCUUGCGCCGGGAAACCACGCAAGGGAUGGUGUCAAAUUCGGCGAAACCUAAGCGCCCGCCCGGGCGUAUGGCAACGCAGAGCCAAGCUUCGGCGCCUGCGCCGAUGAAGGUGUAGCGACUAGACGGCACCCACCUAAGGCUAACGGUAUGGUGAAGGCAUAGUCAAGGGAGUGGCGAAAGUCACACAAACCGG [C82A A120C A145U C150G C169A] here?
Answer: 0.0101

Question: With GUGCCUUGCGCCGGGAAACCACGCAAGGGAUGGUGUCAAAUUCGGCGAAACCUAAGCGCCCGCCCGGGCGUAUGGCAACGCAGAGCCAAGCUUCGGCGCCUGCGCCGAUGAAGGUGUAGCGACUAGACGGCACCCACCUAAGGCUAACGGUAUGGUGAAGGCAUAGUCAAGGGAGAGGCGAAAGUCACACAAACCGG [C82A A120C A145U C150G C169A U176A] as the variant, how does the reverse-splicing fitness read?
Answer: 0.0116

Question: With GUGCCUUGCGCCGGGAAACCACGCAAGGGAUGGUGUCAAAUUCGGCGAAACCUAAGCGCCCGCCCGGGCGUAUGGCAACGCAGAGCCAAGCUUCGGCGCCUGCGCCGAUGAAGGUGUAGCGACUAGACGGCACCCACCUAAGGCUAACGGUAUGGUGAAGGCAUAGUCAAGGGAGCGGCGAAAGUCACACAAACCGG [C82A A120C A145U C150G C169A U176C] as the variant, how does the reverse-splicing fitness read?
Answer: 0.0131

Question: For GUGCCUUGCGCCGGGAAACCACGCAAGGGAUGGUGUCAAAUUCGGCGAAACCUAAGCGCCCGCCCGGGCGUAUGGCAACGCAGAGCCAAGCUUCGGCGCCUGCGCCGAUGAAGGUGUAGCGACUAGACGGCACCCACCUAAGGCUAACGGUAUGGUGAAGGCAUAGUCAAGGGAGGGGCGAAAGUCACACAAACCGG [C82A A120C A145U C150G C169A U176G], which reverse-splicing fitness is on record?
Answer: 0.00455

Question: For GUGCCUUGCGCCGGGAAACCACGCAAGGGAUGGUGUCAAAUUCGGCGAAACCUAAGCGCCCGCCCGGGCGUAUGGCAACGCAGAGCCAAGCUUCGGCGCCUGCGCCGAUGAAGGUGUAGCGACUAGACGGCACCCACCUAAGGCUAACGGUAUGGUGAAGGCAUAGUCGAGGGAGUGGCGAAAGUCACACAAACCGG [C82A A120C A145U C150G C169G], which reverse-splicing fitness is on record?
Answer: 0.00692

Question: For GUGCCUUGCGCCGGGAAACCACGCAAGGGAUGGUGUCAAAUUCGGCGAAACCUAAGCGCCCGCCCGGGCGUAUGGCAACGCAGAGCCAAGCUUCGGCGCCUGCGCCGAUGAAGGUGUAGCGACUAGACGGCACCCACCUAAGGCUAACGGUAUGGUGAAGGCAUAGUCGAGGGAGAGGCGAAAGUCACACAAACCGG [C82A A120C A145U C150G C169G U176A], which reverse-splicing fitness is on record?
Answer: 0.00819

Question: For GUGCCUUGCGCCGGGAAACCACGCAAGGGAUGGUGUCAAAUUCGGCGAAACCUAAGCGCCCGCCCGGGCGUAUGGCAACGCAGAGCCAAGCUUCGGCGCCUGCGCCGAUGAAGGUGUAGCGACUAGACGGCACCCACCUAAGGCUAACGGUAUGGUGAAGGCAUAGUCGAGGGAGCGGCGAAAGUCACACAAACCGG [C82A A120C A145U C150G C169G U176C], which reverse-splicing fitness is on record?
Answer: 0.00545

Question: Which reverse-splicing fitness does the source give for GUGCCUUGCGCCGGGAAACCACGCAAGGGAUGGUGUCAAAUUCGGCGAAACCUAAGCGCCCGCCCGGGCGUAUGGCAACGCAGAGCCAAGCUUCGGCGCCUGCGCCGAUGAAGGUGUAGCGACUAGACGGCACCCACCUAAGGCUAACGGUAUGGUGAAGGCAUAGUCGAGGGAGGGGCGAAAGUCACACAAACCGG [C82A A120C A145U C150G C169G U176G] here?
Answer: 0.00467

Question: Which reverse-splicing fitness does the source give for GUGCCUUGCGCCGGGAAACCACGCAAGGGAUGGUGUCAAAUUCGGCGAAACCUAAGCGCCCGCCCGGGCGUAUGGCAACGCAGAGCCAAGCUUCGGCGCCUGCGCCGAUGAAGGUGUAGCGACUAGACGGCACCCACCUAAGGCUAACGGUAUGGUGAAGGCAUAGUCUAGGGAGUGGCGAAAGUCACACAAACCGG [C82A A120C A145U C150G C169U] here?
Answer: 0.0114

Question: Which reverse-splicing fitness does the source give for GUGCCUUGCGCCGGGAAACCACGCAAGGGAUGGUGUCAAAUUCGGCGAAACCUAAGCGCCCGCCCGGGCGUAUGGCAACGCAGAGCCAAGCUUCGGCGCCUGCGCCGAUGAAGGUGUAGCGACUAGACGGCACCCACCUAAGGCUAACGGUAUGGUGAAGGCAUAGUCUAGGGAGAGGCGAAAGUCACACAAACCGG [C82A A120C A145U C150G C169U U176A] here?
Answer: 0.00709

Question: For GUGCCUUGCGCCGGGAAACCACGCAAGGGAUGGUGUCAAAUUCGGCGAAACCUAAGCGCCCGCCCGGGCGUAUGGCAACGCAGAGCCAAGCUUCGGCGCCUGCGCCGAUGAAGGUGUAGCGACUAGACGGCACCCACCUAAGGCUAACGGUAUGGUGAAGGCAUAGUCUAGGGAGCGGCGAAAGUCACACAAACCGG [C82A A120C A145U C150G C169U U176C], which reverse-splicing fitness is on record?
Answer: 0.00999

Question: For GUGCCUUGCGCCGGGAAACCACGCAAGGGAUGGUGUCAAAUUCGGCGAAACCUAAGCGCCCGCCCGGGCGUAUGGCAACGCAGAGCCAAGCUUCGGCGCCUGCGCCGAUGAAGGUGUAGCGACUAGACGGCACCCACCUAAGGCUAACGGUAUGGUGAAGGCAUAGUCUAGGGAGGGGCGAAAGUCACACAAACCGG [C82A A120C A145U C150G C169U U176G], which reverse-splicing fitness is on record?
Answer: 0.00519

Question: Which reverse-splicing fitness does the source give for GUGCCUUGCGCCGGGAAACCACGCAAGGGAUGGUGUCAAAUUCGGCGAAACCUAAGCGCCCGCCCGGGCGUAUGGCAACGCAGAGCCAAGCUUCGGCGCCUGCGCCGAUGAAGGUGUAGCGACUAGACGGCACCCACCUAAGGCUAACGGUAUGGUGAAGGCAUAGUCCAGGGAGAGGCGAAAGUCACACAAACCGG [C82A A120C A145U C150G U176A] here?
Answer: 0.00792
